The term Kd denotes the free concentration of one partner at which half of the binding sites on the other are occupied at equilibrium, for simple one-to-one binding. A word on the IC50: it is the concentration at which inhibition is half-maximal. A word on the koff: it is a measure of how fast the partners let go of each other. By kon is commonly meant a measure of how fast the partners come together.

Test [1] deals with T1, biotinylated recombinant human TNFRSF25-His tagged (Acro #TN5-H52H3) (human, UniProt Q93038 25-199, biotinylated).
T1 construct: treated as the same protein; also called recombinant biotin-conjugated human TNFRSF25 protein; DR3
T1 sequence (looked up): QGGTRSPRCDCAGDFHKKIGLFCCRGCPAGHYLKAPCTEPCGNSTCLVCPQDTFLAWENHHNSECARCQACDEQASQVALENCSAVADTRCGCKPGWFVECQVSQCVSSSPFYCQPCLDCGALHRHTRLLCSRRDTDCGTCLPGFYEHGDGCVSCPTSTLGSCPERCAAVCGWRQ
The experiment in a line: BLI/Octet; biotinylated TNFRSF25 on streptavidin sensor, mAb in solution; 1:1 Langmuir model. From the text: Provided herein are monoclonal and biparatopic antibodies that specifically target human TNFRSF25. The monoclonal antibodies were produced in an engineered CHOK1 cell-line by transfecting the cells with vectors genetically encoding the Heavy and Light chain antibody sequences followed by a single-step affinity-capture chromatography using FcXL resins. The final monoclonal antibody preparation was buffer exchanged into PBS, pH 7.4. Production of biparatopic antibodies followed a two-step process. In the first step of the process, the so called Knob-half (or Hole-half) antibody was produced by transfecting an engineered CHOK1 cell-line with vectors genetically encoding the Knob (or the Hole) Heavy chain and the corresponding Light chain sequences. The CHOK1-cell-harvest from the Knob-half antibody and Hole half-antibody was then purified by Protein A column-based chromatography. In the second step of the process, the two half-antibodies were reassembled into the desired biparatopic format by the use of a mild reduction step followed by quenching the reaction with buffer exchange into PBS, pH 7.4. To detect binding of the antibodies to human TNFRSF25, recombinant biotin-conjugated human TNFRSF25 protein was immobilized onto a streptavidin-coated MSD (Meso Scale Discovery) plate and allowed to bind the anti-TNFRSF25 mAbs in solution. Following a washing step, the bound antibodies were detected using a sulfo-tagged anti-human Fc antibody. The results of these MSD assays are shown in arbitrary units (au) on the y-axis of FIG. 1. To determine the binding affinity of the antibodies to recombinant human TNFRSF25 protein, recombinant biotin-conjugated human TNFRSF25 protein was immobilized onto a streptavidin-coated BLI sensor and allowed to bind the anti-TNFRSF25 mAbs in solution phase. The binding affinity (K_D) was calculated using the on-rates (Ka) and off-rates (Kd) of mAb binding to the target using a 1:1 Langmuir binding model in the ForteBio data analysis software.
For orientation: Biolayer interferometry detects binding as a change in optical thickness at a sensor tip.

The target of test [2] is T1, biotinylated recombinant human …. Put plainly: MSD competition; TNFRSF25 on plate, antibody titrated, then TL1A-rabbit Fc 0.4 µg/ml as competitor. As for the experimental part: (§1) Figure 6: FIG. 6. […] Human TNFRSF25 was precoated on MSD assay plates followed by incubating with various concentrations of anti-TNFRSF25 antibodies.
Test [3] has the same target. The experiment in a line: BLI/Octet Red 96e; biotinylated TNFRSF25-His on streptavidin biosensor; 600 s association, 600 s dissociation. As to the method: Figure 4: FIG. 4. TNFRSF25 binding affinity of anti-TNFRSF25 antibodies. BLI assay was performed using the Octet Red 96e instrument. Streptavidin biosensors were loaded with biotinylated recombinant human TNFRSF25-His tagged (Acro #TN5-H52H3) as the ligand. During the association phase, biosensors were incubated with anti-TNFRSF25 antibodies at various concentrations for 600 seconds, followed by a 600-second dissociation phase.
To detect binding of certain whole antibodies to human TNFRSF25, streptavidin biosensors were loaded with biotinylated recombinant human TNFRSF25-His tagged (Acro #TN5-H52H3) as the ligand. During the association phase, biosensors were incubated with anti-TNFRSF25 antibodies at various concentrations for 600 seconds, followed by a 600 second dissociation phase.

Test [4] addresses FcγR1 (CD64), BLI reagent (UniProt P12314 16-288, limits assumed). The experiment in a line: BLI; antibody as analyte at 300 nM on FcγR1.
Test [5] addresses T1, biotinylated recombinant human …. The experiment in a line: MSD competition (lower panel); antibody on TNFRSF25-coated plate, wash, then TL1A-rabbit Fc at 0.4 ug/ml, sulfo-tag anti-rabbit detection; raw MSD signal. As to the method: as §1
Test [6] has as its target T2, biotinylated recombinant human FcRn-His tagged protein (Acro #FCM-H82W7) (human, UniProt P55899 24-297; P61769 21-119, biotinylated).
T2 construct: also called hFcRn; neonatal Fc receptor
The experiment in a line: BLI/Octet; biotinylated human FcRn-His on streptavidin biosensor; pH 6.0. As for the experimental part:
(§2) Figure 5D: FIG. 5D. FcRn binding kinetics by anti-TNFRSF25 antibodies. BLI assay was performed using the Octet Red 96e instrument. Streptavidin biosensors were loaded with biotinylated recombinant human(h) FcRn-His tagged protein (Acro #FCM-H82W7) as the ligand. During the association phase, biosensors were incubated with anti-DR3 candidate antibodies at various concentrations for 600 seconds, followed by a 600-second dissociation phase.
(§3) To detect binding of certain whole antibodies to the neonatal Fc receptor (FcRn) at neutral and acidic pH conditions, streptavidin biosensors were loaded with biotinylated recombinant human FcRn-His tagged protein (Acro #FCM-H82W7) as the ligand. During the association phase, biosensors were incubated with anti-TNFRSF25 antibodies at various concentrations for 600 seconds, followed by a 600 second dissociation phase.

For test [7], the target named is T2, biotinylated recombinant human FcRn-His …. Put plainly: BLI/Octet; biotinylated human FcRn-His on streptavidin biosensor; pH 7.4. As to the method:
as §2, §3

The target is the same in test [8]. Put plainly: BLI/Octet; biotinylated human FcRn-His on streptavidin biosensor. As to the method:
as §2, §3

The target in test [9] is T1, biotinylated recombinant human …. Put plainly: MSD competition; scFv supernatant serially diluted on TNFRSF25-coated plate, then TL1A added and the remaining TL1A detected. From the text:
(FIG. 2A) TNFRSF25 was precoated on MSD assay plates followed by adding scFv supernatant at 2-fold serial-dilutions followed by detection of the myc tag present on the C-terminus of the scFv's. (FIG. 2B) scFv supernatant were serially diluted and added to an MSD-plate pre-coated with TNFRSF25.

T2 sequence (P55899 24-297 limits assumed, chain 1 of 2): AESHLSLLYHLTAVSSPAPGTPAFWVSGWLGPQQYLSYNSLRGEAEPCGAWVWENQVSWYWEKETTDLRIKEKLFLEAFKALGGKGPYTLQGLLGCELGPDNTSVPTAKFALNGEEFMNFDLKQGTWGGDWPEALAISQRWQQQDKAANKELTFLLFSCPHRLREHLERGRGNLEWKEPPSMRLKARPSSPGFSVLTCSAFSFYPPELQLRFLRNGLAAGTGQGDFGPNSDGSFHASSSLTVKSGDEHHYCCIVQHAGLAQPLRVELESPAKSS
T2 sequence (P61769 21-119 limits assumed, chain 2 of 2): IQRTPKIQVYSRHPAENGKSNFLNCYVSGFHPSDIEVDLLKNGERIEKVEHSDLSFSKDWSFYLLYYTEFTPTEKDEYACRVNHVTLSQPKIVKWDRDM
Sequence of FcγR1 (CD64), BLI reagent (P12314 16-288 limits assumed): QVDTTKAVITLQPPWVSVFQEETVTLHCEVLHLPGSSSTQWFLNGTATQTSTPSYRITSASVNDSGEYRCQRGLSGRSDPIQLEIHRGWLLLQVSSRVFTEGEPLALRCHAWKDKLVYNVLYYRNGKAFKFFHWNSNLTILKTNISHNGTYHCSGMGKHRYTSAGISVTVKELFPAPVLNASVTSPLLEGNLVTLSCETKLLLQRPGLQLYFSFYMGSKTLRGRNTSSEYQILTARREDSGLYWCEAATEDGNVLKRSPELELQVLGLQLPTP

B1: SL-038 (antibody, human IgG1, kappa, L234A L235A, V domains shown)
VH: EVQLVESGGGLSQPGNSLQLSCEASGFTFSNHDMNWVRQAPGKGLEWVAYISSASGLISYADSVRGRFTISRDNAKNSLFLQMNNLKSEDTAMYYCARDPAYSGNYALDFWGQGTQVTVSS
VL: QPVLTQSPSASASLSGSVKLTCTLSSELSSYTIVWYQQQPDKAPKYVMYLKSDGSHGKGDGIPDRFSGSSSGAHRYLSVSNVQSEDDATYFCGAGYTLAGQYGWVFGSGTKVTVLR
Turning to B1, in test [1], the Kd turned out to be 3.6 nM.

B2: NH46 (whole antibody) (antibody, human IgG1, kappa, V domains shown)
VH: QVQLVQSGSEVKKPGASVRVSCKVSGSTVKELSMHWVRQAPGKGLEWMGGYDPEDGESIFAQKFQGRVNMTEDRSTDTAYMELSSLRSEDTAVYYCATDLNWEDAFDVWGQGTMVTVSS
VL: QSVLTQPPSVSAAPGQKVTISCSGSGSNIGNYYVAWYQQFPGTAPKLLIYDNNKRPSGIPDRFSGSKSGTSATLGITGLQTGDEADYYCGTWDTSLTAGDIYVFGTGTKVTVLR
For B2, the IC50 in test [2] amounted to 0.26 nM. Also, in [1], the dissociation constant Kd worked out at 0.185 nM. For the same molecule, in [3], the “Response (RU)” value is 1.06 RU, the koff came to 8.54e-05 s⁻¹ and the kon was found to be 452000 M⁻¹ s⁻¹.

B3: SL-034 (antibody, human IgG1, kappa, L234A L235A, N297A)
heavy: QVQLQQSGPGLVKPSQTLSLTCAISGDSVSGYSAAWNWIRQSPSRGLEWLGRTYYRSKWYNDYAVSVKSRITINPDTSKNQFSLQLNSVTPEDTAVYYCARDYYGSESYYNRGYYYYGMDVWGQGTTVTVSSASTKGPSVFPLAPSSKSTSGGTAALGCLVKDYFPEPVTVSWNSGALTSGVHTFPAVLQSSGLYSLSSVVTVPSSSLGTQTYICNVNHKPSNTKVDKKVEPKSCDKTHTCPPCPAPEAAGGPSVFLFPPKPKDTLMISRTPEVTCVVVDVSHEDPEVKFNWYVDGVEVHNAKTKPREEQYASTYRVVSVLTVLHQDWLNGKEYKCKVSNKALPAPIEKTISKAKGQPREPQVYTLPPSREEMTKNQVSLTCLVKGFYPSDIAVEWESNGQPENNYKTTPPVLDSDGSFFLYSKLTVDKSRWQQGNVFSCSVMHEALHNHYTQKSLSLSPGK
light: AIQLTQSPSSLSASVGDRVTITCRASPGISSALAWYQQKPGKAPKLLMYDESSQESGVPSRFSGSGSGTDFTLTISSLQPEDFATYYCQQFNDYPLTFGGGTKVEIKRTVAAPSVFIFPPSDEQLKSGTASVVCLLNNFYPREAKVQWKVDNALQSGNSQESVTEQDSKDSTYSLSSTLTLSKADYEKHKVYACEVTHQGLSSPVTKSFNRGEC
notes: Same variable regions as SL-033; also called clone 034; L234A/L235A+N297A
Consider B3, for which, in [4], the binding result is “no binding (tested: 300 nM)”. For the same molecule, in test [1], the Kd was < 1 nM.

B4: SL-061_LS (antibody, human IgG1, kappa)
heavy: QVQLQQSGPGLVKPSQTLSLTCAISGDSVSGYSAAWNWIRQSPSRGLEWLGRTYYRSKWYNDYAVSVKSRITINPDTSKNQFSLQLNSVTPEDTAVYYCARDYYGSESYYNRGYYYYGMDVWGQGTTVTVSSASTKGPSVFPLAPSSKSTSGGTAALGCLVKDYFPEPVTVSWNSGALTSGVHTFPAVLQSSGLYSLSSVVTVPSSSLGTQTYICNVNHKPSNTKVDKKVEPKSCDKTHTCPPCPAPEAAGAPSVFLFPPKPKDTLMISRTPEVTCVVVDVSHEDPEVKFNWYVDGVEVHNAKTKPREEQYNSTYRVVSVLTVLHQDWLNGKEYKCKVSNKALPAPIEKTISKAKGQPREPQVYTLPPSREEMTKNQVSLTCLVKGFYPSDIAVEWESNGQPENNYKTTPPVLDSDGSFFLYSKLTVDKSRWQQGNVFSCSVLHEALHSHYTQKSLSLSPGK
light: AIQLTQSPSSLSASVGDRVTITCRASPGISSALAWYQQKPGKAPKLLMYDESSQESGVPSRFSGSGSGTDFTLTISSLQPEDFATYYCQQFNDYPLTFGGGTKVEIKRTVAAPSVFIFPPSDEQLKSGTASVVCLLNNFYPREAKVQWKVDNALQSGNSQESVTEQDSKDSTYSLSSTLTLSKADYEKHKVYACEVTHQGLSSPVTKSFNRGEC
notes: SL-061 with LS half-life extension changes in the Fc
Consider B4, for which the “IC50 (read off the curve)” value in [5] is ~0.2 nM. Besides, in test [6], the Kd turned out to be 0.879 nM, the koff came out at 0.000181 s⁻¹ and the kon is 206000 M⁻¹ s⁻¹. For the same molecule, in [7], the Kd is 6.78 nM, the koff came to 0.00144 s⁻¹ and the kon came out at 213000 M⁻¹ s⁻¹. The “fold improvement in binding affinity at pH 6.0 compared to pH 7.4” value in test [8] was ~10 fold.

B5: NH24-47 (scFv, not shown: small tags and cut ends)
scFv: EVQLVESGGGSVQPGGSLRLSCAASGFTFSSYGMSWVRQAPGKGLEWISYISSSGGHTYYADSVKGRFTISRDNAKNSLYLQMNSLRAEDTAVYYCARYSGAFDRWGQGTPVTVSSGGRGSGGGGSGSGGSDIVMTQSPSSLSASVGDRVTITCQASQDISNYLSWYQQKPGKAPKLLISDASNLETGVPSRFSGSGSGTDFTFTISSLQPEDIATYYCQQYDNLPITFGQGTRLEIKR
notes: one of the four variants of group m25; used as unpurified E. coli supernatant; the sheet prints NH24-47; also called NH24-47 scFv
B5: the binding result in test [9] is “binds”.

B6: NH24-72 (scFv, not shown: small tags and cut ends)
scFv: EVQLVESGGGSVQPGGSLRLSCAASGFTFSSYGMNWIRQAPGKGLEWITYISSSGGHTYYADSVKGRFTISRDNAKNSLYLQMNSLRAEDTAVYYCARGQGPFEYWGQGTLVTVSSGGRGSGGGGSGSGGSDIVMTQSPSSLSASVGDRVTITCQASQDISNYLSWYQQKPGKAPKLLINDASNLETGVPSRFSGSGSGTDFTFTISSLQPEDIATYYCQQYDNLPITFGQGTRLEIKR
notes: one of the four variants of group m25; used as unpurified E. coli supernatant; the sheet prints NH24-72; also called NH24-72 scFv
As for B6, the binding result in test [9] is given as “binds”.

B7: NH24 (whole antibody) (antibody, human IgG1, kappa, V domains shown)
VH: EVQLVESGGGSVQPGGSLRLSCAASGFTFSSYGMSWIRQAPGKGLEWISYISSSGGHTYYADSVKGRFTISRDNAKNSLYLQMNSLRAEDTAVYYCARGSGSFDYWGQGTLVTVSS
VL: DIVMTQSPSSLSASVGDRVTITCQASQDITNYLSWYQQKPGKAPKLLISDASNLETGIPSRFSGSGSGTDFTFTISSLQPEDIATYYCQQYDTLPITFGQGTRLEIKR
As for B7, in [2], the half-maximal inhibitory concentration (IC50) was 39.4 nM. In addition, the Kd in [1] is 0.59 nM. In addition, in test [3], the “Response (RU)” value is 0.73 RU, the koff was found to be 0.000742 s⁻¹ and the kon worked out at 1.26e+06 M⁻¹ s⁻¹.

The values above are taken from patent US12319742 (SHATTUCK LABS, dated 2025).
